{"source": "paper PMC3485151", "about": "“A Δ38 Deletion Variant of Human Transketolase as a Model of Transketolase-Like Protein 1 Exhibits No Enzymatic Activity” (PLoS ONE, 2012)", "proteins": {"B1": {"name": "human full-length transketolase (enzyme, UniProt P29401 1-623, looked up)", "chain": "MESYHKPDQQKLQALKDTANRLRISSIQATTAAGSGHPTSCCSAAEIMAVLFFHTMRYKSQDPRNPHNDRFVLSKGHAAPILYAVWAEAGFLAEAELLNLRKISSDLDGHPVPKQAFTDVATGSLGQGLGAACGMAYTGKYFDKASYRVYCLLGDGELSEGSVWEAMAFASIYKLDNLVAILDINRLGQSDPAPLQHQMDIYQKRCEAFGWHAIIVDGHSVEELCKAFGQAKHQPTAIIAKTFKGRGITGVEDKESWHGKPLPKNMAEQIIQEIYSQIQSKKKILATPPQEDAPSVDIANIRMPSLPSYKVGDKIATRKAYGQALAKLGHASDRIIALDGDTKNSTFSEIFKKEHPDRFIECYIAEQNMVSIAVGCATRNRTVPFCSTFAAFFTRAFDQIRMAAISESNINLCGSHCGVSIGEDGPSQMALEDLAMFRSVPTSTVFYPSDGVATEKAVELAANTKGICFIRTSRPENAIIYNNNEDFQVGQAKVVLKSKDDQVTVIGAGVTLHEALAAAELLKKEKINIRVLDPFTIKPLDRKLILDSARATKGRILTVEDHYYEGGIGEAVSSAVVGEPGITVTHLAVNRVPRSGKPAELLKMFGIDRDAIAQAVRGLITKA", "notes": "human transketolase (TKT, EC 2.2.1.1), full length, residues 1-623, expressed from a synthetic codon-optimized tkt gene in pET28a; Expressed and purified by the same protocol as TKTΔ38; also called TKT; full-length TKT; source: E. coli BL21*, purified (Ni-NTA, desalting column)"}}, "target": "the molecule itself", "assay": "SEC; analytical gel filtration, Superdex 200 10/30, 200 µL of 4 mg/mL protein in 50 mM glycyl-glycine pH 7.6, 500 mM NaCl, 6°C; apparent masses estimated from protein standards; semiquantitative", "data": [{"protein": "B1", "values": [{"measurement": "stoichiometry N", "value": 2}]}]}
